One block for each binder: values may come before it.
Target: IL-13 (human IL-13, preparation not specified) (human) (UniProt P35225)
Assay: cell-based or functional assay

Sequence of IL-13 (human IL-13, preparation not specified) (human) (P35225 35-146 limits assumed): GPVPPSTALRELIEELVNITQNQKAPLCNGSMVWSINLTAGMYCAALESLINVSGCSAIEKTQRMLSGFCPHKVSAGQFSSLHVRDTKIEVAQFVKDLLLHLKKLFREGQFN

- IC50, Eotaxin-1 assay, Average: 32 pM
- IC50, Eotaxin-1 assay, n = 1: 29 pM
- IC50, Eotaxin-1 assay, n = 2: 39 pM
- IC50, Eotaxin-1 assay, n = 3: 29 pM
B1: murine IL-13 receptor α2/FC (Fc fusion, UniProt O88786 22-334, looked up, not shown: a dimerising Fc or GST)
chain: LEIKVNPPQDFEILDPGLLGYLYLQWKPPVVIEKFKGCTLEYELKYRNVDSDSWKTIITRNLIYKDGFDLNKGIEGKIRTHLSEHCTNGSEVQSPWIEASYGISDEGSLETKIQDMKCIYYNWQYLVCSWKPGKTVYSDTNYTMFFWYEGLDHALQCADYLQHDEKNVGCKLSNLDSSDYKDFFICVNGSSKLEPIRSSYTVFQLQNIVKPLPPEFLHISVENSIDIRMKWSTPGGPIPPRCYTYEIVIREDDISWESATDKNDMKLKRRANESEDLCFFVRCKVNIYCADDGIWSEWSEEECWEGYTGPDSK

- IC50, Eotaxin-1 assay, Average: 131 pM
- IC50, Eotaxin-1 assay, n = 1: 128 pM
- IC50, Eotaxin-1 assay, n = 2: 147 pM
- IC50, Eotaxin-1 assay, n = 3: 119 pM
B2: human IL-13 receptor α2/Fc (Fc fusion, UniProt Q14627 27-343, looked up, not shown: a dimerising Fc or GST)
chain: DTEIKVNPPQDFEIVDPGYLGYLYLQWQPPLSLDHFKECTVEYELKYRNIGSETWKTIITKNLHYKDGFDLNKGIEAKIHTLLPWQCTNGSEVQSSWAETTYWISPQGIPETKVQDMDCVYYNWQYLLCSWKPGIGVLLDTNYNLFYWYEGLDHALQCVDYIKADGQNIGCRFPYLEASDYKDFYICVNGSSENKPIRSSYFTFQLQNIVKPLPPVYLTFTRESSCEIKLKWSIPLGPIPARCFDYEIEIREDDTTLVTATVENETYTLKTTNETRQLCFVVRSKVNIYCSDDGIWSEWSDKQCWEGEDLSKKTLLR

— US20220281966A1
